This assay addresses DENV1 prM protein with H98A (dengue virus 1 (DENV1), FGA/NA d1d strain). In words: co-IP.

For “DENV1 E protein with H244A (natural protein)”, the co-IP at pH 6.0 as percent of that at pH 7.0 came out at 33%.

These data come from paper PMC4063126.
